± gives the uncertainty stated by the source.
B1: RanBP-type and C3HC4-type zinc finger-containing protein 1, residues 369 to 411; numbered along this chain, Q9BYM8 (parent)
chain: YHCKTPDCKGWCFFEDDVNEFTCPVCFHVNCLLCKAIHEQMNC

Variants of: B1
Test: abundance fitness (aPCA) (normalised: wild type 0, dead -1); higher = more abundant; growth selection in yeast, the domain comes from the species named
Settings: Homo sapiens

Q: With YHCKTPDCKGWRFFEDDVNEFTCPVCFHVNCLLCKAIHEQMNC as the variant, how does the abundance fitness read?
A: -0.193 ± 0.1

Q: With YHCDTPDCKGWCFFEDDVNEFTCPVCFHVNCLLCKAIHEQMNC as the variant, how does the abundance fitness read?
A: -0.504 ± 0.11

Q: For YHCKTPDDKGWCFFEDDVNEFTCPVCFHVNCLLCKAIHEQMNC, which abundance fitness is on record?
A: -0.812 ± 0.15

Q: With YHCKTPDCKGWCFFEDDVNEFTCPVCFHVHCLLCKAIHEQMNC as the variant, how does the abundance fitness read?
A: -0.42 ± 0.14

Q: For YHCKTPDCKGWCFFEDDVNEFTCPVCFHVNCLLCKALHEQMNC, which abundance fitness is on record?
A: -0.219 ± 0.047

Q: With YHCKTPDCKGWCFFEDDVNEFTSPVCFHVNCLLCKAIHEQMNC as the variant, how does the abundance fitness read?
A: -0.904 ± 0.098

Q: Which abundance fitness does the source give for YHCKHPDCKGWCFFEDDVNEFTCPVCFHVNCLLCKAIHEQMNC here?
A: -0.159 ± 0.067

Q: For YHCKTPDCKGWCFFEDDVNEFTCPVCFHVNCALCKAIHEQMNC, which abundance fitness is on record?
A: -0.231 ± 0.044

Q: For YHCKTPDCKGWCFFPDDVNEFTCPVCFHVNCLLCKAIHEQMNC, which abundance fitness is on record?
A: -0.153 ± 0.06

Q: With YHCKTPDCKGWCFFEDDVNEFTCPVCFHVNCLLCKAEHEQMNC as the variant, how does the abundance fitness read?
A: -0.181 ± 0.055

Q: Which abundance fitness does the source give for YHEKTPDCKGWCFFEDDVNEFTCPVCFHVNCLLCKAIHEQMNC here?
A: -0.984 ± 0.16

Q: Which abundance fitness does the source give for YHCKTPDCKGWCFFEDTVNEFTCPVCFHVNCLLCKAIHEQMNC here?
A: -0.077 ± 0.073

Q: For YHCKTPECKGWCFFEDDVNEFTCPVCFHVNCLLCKAIHEQMNC, which abundance fitness is on record?
A: 0.034 ± 0.054

Q: Which abundance fitness does the source give for YHCKTPDCKGWCFFEDDVNEFTCPVCFHVNCLLCQAIHEQMNC here?
A: -0.026 ± 0.06

Q: Which abundance fitness does the source give for YHCKTPDCKGWCFFEDDVNEFTCPVCFHVNCLLCKEIHEQMNC here?
A: 0.058 ± 0.062

Q: Which abundance fitness does the source give for YHCKTPDCKGWCFFEDDVNEFTCPVCFHVNCLLCKAIHEQMPC here?
A: 0.219 ± 0.058

Q: With YHCKTPDCKGWCFFEDDVNEFTCPVCFHVNCLLCPAIHEQMNC as the variant, how does the abundance fitness read?
A: -0.356 ± 0.063

Q: Which abundance fitness does the source give for YHCKTPDCKGWCFFEDDVNEFTCPVCFHVNCLLCKAIYEQMNC here?
A: -0.721 ± 0.12

Q: With YHCKTPDCKGCCFFEDDVNEFTCPVCFHVNCLLCKAIHEQMNC as the variant, how does the abundance fitness read?
A: -0.088 ± 0.088

Q: Which abundance fitness does the source give for YHCKTPDCKGWCFFEDDVNEFTCPVCPHVNCLLCKAIHEQMNC here?
A: -0.62 ± 0.068

Q: Which abundance fitness does the source give for YNCKTPDCKGWCFFEDDVNEFTCPVCFHVNCLLCKAIHEQMNC here?
A: 0.104 ± 0.1

Q: For YHCKTPDCKGWCFFEDDVNEFTCPVCRHVNCLLCKAIHEQMNC, which abundance fitness is on record?
A: 0.005 ± 0.04

Q: For YHCKTPDCKGWCFFEDDVNEFTCPVCFHVNCLLCVAIHEQMNC, which abundance fitness is on record?
A: -0.406 ± 0.05

Q: With YHCKTPDCKGWCFFEDDVNEFTCPVCFHVNCLLCKMIHEQMNC as the variant, how does the abundance fitness read?
A: -0.266 ± 0.068

Q: For YHCKTPDCKGWCFFEDDINEFTCPVCFHVNCLLCKAIHEQMNC, which abundance fitness is on record?
A: 0.099 ± 0.081

Q: With YHCKTPDCKGWCFFEDDVNEFTCPVCFHVNCLLCKAIHEQMNM as the variant, how does the abundance fitness read?
A: -0.507 ± 0.43

Q: Which abundance fitness does the source give for YHCKTPDCKGWCFFNDDVNEFTCPVCFHVNCLLCKAIHEQMNC here?
A: -0.295 ± 0.075

Q: With YHCKTPDCKGWCFFEDDVNEFTCPVCFHVNCLLCKAHHEQMNC as the variant, how does the abundance fitness read?
A: -0.218 ± 0.086

Q: With YHCKTPDCKGWCFFEDDVNEDTCPVCFHVNCLLCKAIHEQMNC as the variant, how does the abundance fitness read?
A: -0.211 ± 0.11

Q: For YHCKTPDCKGWCFFEDDVNEFTCPVCFHVNCLLCKAMHEQMNC, which abundance fitness is on record?
A: -0.214 ± 0.076

Q: For YHCKTPDCKGWCFFEDDVNEFTCPVVFHVNCLLCKAIHEQMNC, which abundance fitness is on record?
A: -1.03 ± 0.093

Q: For YHCKTPDCKGWCFFEDDVNEFTCPVCFHVNCLLCKAIHWQMNC, which abundance fitness is on record?
A: -0.249 ± 0.06

Q: With YHCKTPDCKGWCFFEDDVQEFTCPVCFHVNCLLCKAIHEQMNC as the variant, how does the abundance fitness read?
A: 0.052 ± 0.052

Q: Which abundance fitness does the source give for YHCKTPDCKGWCFFEDDVNEFTCPDCFHVNCLLCKAIHEQMNC here?
A: -0.142 ± 0.058

Q: Which abundance fitness does the source give for YHCKTPDCKGWCFFEDDVNEFTCPKCFHVNCLLCKAIHEQMNC here?
A: -0.112 ± 0.049

Q: For YHCKTPDCKGWEFFEDDVNEFTCPVCFHVNCLLCKAIHEQMNC, which abundance fitness is on record?
A: -0.854 ± 0.31

Q: Which abundance fitness does the source give for YHCKTPDCKGWCFFEDDWNEFTCPVCFHVNCLLCKAIHEQMNC here?
A: -0.458 ± 0.061

Q: For YHCKTPDCKGWCFFEDDVNEFTCPVCFHVNCLLCKAIHEQGNC, which abundance fitness is on record?
A: 0.202 ± 0.038

Q: For YHCKTPHCKGWCFFEDDVNEFTCPVCFHVNCLLCKAIHEQMNC, which abundance fitness is on record?
A: -0.2 ± 0.067

Q: With YHCKTPDCKGWCFFEEDVNEFTCPVCFHVNCLLCKAIHEQMNC as the variant, how does the abundance fitness read?
A: 0.026 ± 0.053

Q: Which abundance fitness does the source give for YHCKVPDCKGWCFFEDDVNEFTCPVCFHVNCLLCKAIHEQMNC here?
A: -0.083 ± 0.049

Q: With YHCKTPDCKGWCFFEDDVNEFTCPVCFHVNCLLQKAIHEQMNC as the variant, how does the abundance fitness read?
A: -0.494 ± 0.048

Q: Which abundance fitness does the source give for YSCKTPDCKGWCFFEDDVNEFTCPVCFHVNCLLCKAIHEQMNC here?
A: -0.072 ± 0.05

Q: For YHCKTPDCKGWCFFEDDVNEFTCPVCFHVSCLLCKAIHEQMNC, which abundance fitness is on record?
A: -0.797 ± 0.076

Q: Which abundance fitness does the source give for YHCKTPDCKGWCFFEDDVNEFTCPVCFHVRCLLCKAIHEQMNC here?
A: -0.8 ± 0.066

Q: Which abundance fitness does the source give for YHCKTPDCKGWCFFEDDHNEFTCPVCFHVNCLLCKAIHEQMNC here?
A: -0.277 ± 0.11

Q: For YHCKTPDCKGWCFFEDDVNEFTCPVCFHVNCLLCDAIHEQMNC, which abundance fitness is on record?
A: -0.156 ± 0.1

Q: With YHQKTPDCKGWCFFEDDVNEFTCPVCFHVNCLLCKAIHEQMNC as the variant, how does the abundance fitness read?
A: -0.886 ± 0.12

Q: Which abundance fitness does the source give for YHCKTPDCKGWCFFEDDVNEFTCPVCFHVNCVLCKAIHEQMNC here?
A: -0.167 ± 0.051

Q: For YHCKNPDCKGWCFFEDDVNEFTCPVCFHVNCLLCKAIHEQMNC, which abundance fitness is on record?
A: -0.236 ± 0.098

Q: Which abundance fitness does the source give for YHCKTPDCKGWCFFEDDVNEFTCPVCFHVNCLLCKTIHEQMNC here?
A: 0.005 ± 0.047

Q: Which abundance fitness does the source give for YHCKTPDCKGWCFFEDDVNEFTCPVCLHVNCLLCKAIHEQMNC here?
A: -0.02 ± 0.044

Q: For YHCKTPDCKGWCFFEDDVNEFTCPVCFHVNCLLCKAIHEQRNC, which abundance fitness is on record?
A: 0.128 ± 0.038

Q: Which abundance fitness does the source give for YHCWTPDCKGWCFFEDDVNEFTCPVCFHVNCLLCKAIHEQMNC here?
A: -0.083 ± 0.065

Q: For YHCKTPDCKGWCFFEDHVNEFTCPVCFHVNCLLCKAIHEQMNC, which abundance fitness is on record?
A: -0.021 ± 0.06

Q: With YHCKTPDCKGWCFFEDDVNEFTCGVCFHVNCLLCKAIHEQMNC as the variant, how does the abundance fitness read?
A: -0.389 ± 0.041

Q: With YHCKTPDCKGWCFFEDDVNEFTCAVCFHVNCLLCKAIHEQMNC as the variant, how does the abundance fitness read?
A: -0.558 ± 0.052

Q: For YHCKTPDCKGWCFFEDDVNEFTCPVCFHVNCLLCKAIHEQMNH, which abundance fitness is on record?
A: -0.23 ± 0.12

Q: For YHCKTPDCKGWCFFEDDVNEFTCPVCFHVNCLLCKAIHHQMNC, which abundance fitness is on record?
A: -0.167 ± 0.079
